Experimental data from the DeepSol protein solubility set.

test: soluble on expression in E. coli; label from the status in PepcDB or PDB records

Sequence	soluble on expression in E. coli
MEKIWLDSYEKGVSAEIDITQYNSVSDVFRQSVEKFADQPAFQNMGKTLTYAETGKLATDFASYLQNVLKLPRGERVAIMLPNVLQYPVALFGILQAGLVAVNTNPLYTPRELEHQLKDSGATAIIVLENFANTLELVLPRTQIKHVIVASVGEMFGLLKGSLINFVIRKIKKMVPEYRIRETVSFQTALKEGAKHVFQPVALNREDTALLQYTGGTTGVAKGAVLSHGNICANMLQAKEWIKNQLREGKETVIAALPLYHIFALTVNLMIFANAGSKIILITNPRDMKGFIGELKKQRVNVFIGVNTLFNAMVNRPDFAEVDFSELRLTLGGGMATQKAVAEKWKKITGTPIVEAYGLTEASPGVCCNPLNIESYSGSIGLPVSSTEVELRDANGKEVPVGQPGELWVKGPQVMQGYWNRPEETAKAIDARGFLETGDIAVMDEKGWLKLVDRKKDLVVVSGFNVYPNEIEEVIAHHGKVMEVACIGVPDEKTGEALKVFVVKKDPSLTKEELIAFCRTELTAYKVPKNIEFRDELPKSNVGKILRRELRQSTGK	not soluble
MVMTVRVIAPDKTVWDAPAEEVILPSTTGQLGILSNHAPLLTALETGVMRVRQDREWVAIALMGGFAEVENNEVTILVNGAERGDTIDPQEAQQTLEIAEANLRKAEGARQKIEANLALRRARTRVEASNTISS	soluble
GPGSMMEGSPSEVHVHSSMAMGLQERPPLELVSHASEVSCLTINDNYDMWNASMYPNLNSGFDASLTSATTPDTTVARFAPAMRPHRKQQLSHQMMPLPARGEQTMSDIDSEVVLWDRPPTQDVLGSPAASGL	soluble
MAHHHHHHSLVDVRQSIHSEHAKTLDTQALRREFLIENIFVADEYTMVYSHIDRIIVGGIMPVSHPVEIGGEVGKQLGVSRLLDRRELGVINIGGAGAIIVDGQRHDIGHRDALYIGKGAKELVFVSNEASRPAKFYYNCAPAHTAYPTKKVSPADVAPVTLGDNLTSNRRTINKYFVPDVLETCQLSMGLTELAPGNLWNTMPCHTHERRMEVYLYFNMEEDSCVFHMMGQPQETRHIVMRNEQAVISPSWSIHSGVGTKAYTFIWGMVGENQVFDDMDHVAVQDLREG	soluble
MGSDKIHHHHHHVPKNKDSKNNSIPRRRFGRTEIQIPVLSLGGMRFQQSWKDLDPKEINNQQQEILQKTISYAAQKGMHHIETARHYGTSERQIGWAFDQIDDPKRILQTKVPPNNDPSIFEQELELSMSRLGSKKIDLLAIHGINLPEHLDMTIRPNGCLQIVRRWQKDGLIGHVGFSTHANVDLIIKTIETGFFDYVNLHWYFIRQENEKALQAADANDLGVFIISPTDKGGHLHTPSLKLLDLCSPLHPIEFNDLFCLRDKRIHTLSVGASSPEDLDIHLSAISKMDTMHGVINTIEKRLINASYKSLGESWLTTWNIGLPRWDQTPGEINIPTLLWLNNLLEAWDMESFVKDRYGLLGRGGHWFPGANADCLDCEVSEDDLKKVLINSPWSSEIPSVLRKLKDRLGGERRDRLWGI	not soluble
MPTPLTHWSRWMQTASRFVDEYPNFSVLPPPPLRAPPPHSKISDRRSV	not soluble
MLLVSVISCLLISVLAKDAVTPRVGSQCTKNQVVRKLTVYEDGALEAECGPVPCGEVGKRCIDDQTSCRAETDVFSGMRWAPNGESILLRCCTMHAKNKIYVGTDVVAAGSFYEGGEVAEKDLYGDKGGAEYDFVANARTEQGGVRVWVYRMICAKGEKPVDFDPITTTSAPRVIKTTPAPTTTPTVEEEAEEAEQLEEDQPNDNEAEIVESNDEEEVVEEETEEEEEVTTTPAPKPFNPLRYRPPHFPRQSTGIRRA	not soluble
MAIDSKPHDDLQLFKTNLHPCGYWPDRWASDLVMDPNDPRLGAIYPQTLAWGFRRSGNLLYRPHCEHCNACVPVRVNVNAFVPNRSQRRCLARNATLVTRIVPAERNAEQLSLYRRYLHQRHPDGGMDGHGAIEFDQFLIGPWGYGRFMEIREPATNGTPGQLLAVAVTDLTHQALSAVYTFYEPNAAARGLGTLAILHQIHWAQREQRPYLYLGYWIKDHFKMDYKRRFQKLEIYDGYRWRPFSTTYPTTHTLLEHHHHHH	soluble
MAVLCGVCGIKEFKYKCPRCLVQTCSLECSKKHKTRDNCSGQTHDPKEYISSEALKQADDDKHERNAYVQRDYNYLTQLKRMVHVQKMDARMKNKRVLGPVGGHNSNFKKRRYDIDEDDRDSTECQRIIRRGVNCLMLPKGMQRSSQNRSKWDKTMDLFVWSVEWILCPMQEKGEKKELFKHVSHRIKETDFLVQGMGKNVFQKCCEFYRLAGTSSCIEGEDGSETKEERTQILQKSGLKFYTKTFPYNTTHIMDSKKLVELAIHEKCIGELLKNTTVIEFPTIFVAMTEADLPEGYEVLHQEPRPLEHTSTLNKFIDNAREEEDAEEDSQPTEEPVQKETQDASDSDSDSDDDYNPGLSMDFLTA	not soluble
